In patent US20220048967A1 (published 2022):
Numbered stars: 1 amine (or outer) side, 2 acyl side, 3 side chain; on linkers, the order of the positions; unused ones are H or OH. Square brackets hold non-standard residues; d marks the D form. Side chains are listed from the residue outwards. Ends that are not written are not given here. * marks the point of attachment. C20 diacid = O=C(O)CCCCCCCCCCCCCCCCCCC(=O)*; αMePhe(2-F) = C[C@](N)(Cc1ccccc1F)C(=O)O; γGlu = O=C(O)[C@H](CCC(=O)[*:2])N[*:1]; Desaminotyrosyl = O=C(CCc1ccc(O)cc1)*; αMeF = C[C@](N)(Cc1ccccc1)C(=O)O; AEEA = NCCOCCOCC(=O)O; Aib = CC(C)(N)C(=O)O

T1: human gastric inhibitory peptide receptor (GIPR) (human, UniProt P48546 22-466)
T1 sequence (looked up): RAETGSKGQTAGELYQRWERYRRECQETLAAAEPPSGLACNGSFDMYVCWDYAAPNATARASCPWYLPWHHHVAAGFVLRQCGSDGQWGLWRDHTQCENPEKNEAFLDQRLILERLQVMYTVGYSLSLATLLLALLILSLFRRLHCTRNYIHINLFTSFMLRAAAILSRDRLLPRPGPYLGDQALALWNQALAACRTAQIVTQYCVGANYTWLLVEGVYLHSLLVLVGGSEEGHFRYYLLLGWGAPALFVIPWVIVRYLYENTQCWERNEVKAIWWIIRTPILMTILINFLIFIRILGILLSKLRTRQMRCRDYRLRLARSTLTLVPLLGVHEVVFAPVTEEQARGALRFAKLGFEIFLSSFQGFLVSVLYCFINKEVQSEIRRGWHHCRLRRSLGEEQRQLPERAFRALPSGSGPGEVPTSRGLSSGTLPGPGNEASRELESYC


Tests used:
[1] = target: human GLP-1 receptor (GLP-1R) (human, UniProt P43220 24-463); assay: cell-based or functional assay
[2] = target: T1, human gastric inhibitory peptide …; assay: cell-based or functional assay

Binder	hGLP1R cAMP EC50 ratio [1]	hGLP1R cAMP Rel EC50 [1] [nM]	hGIPR cAMP EC50 ratio [2]	hGIPR cAMP Rel EC50 [2] [nM]
YXEGTXTSDHSILLDKKAQXAFIEYLIEGGPSSGAPPPS (Y-Aib-EGT-αMeF-TSDHSILLDKK((2-[2-(2-Amino-ethoxy)-ethoxy]-acetyl)2-(γ-Glu)-CO-(CH2)18-CO2H)AQ-Aib-AFIEYLIEGGPSSGAPPPS-NH2) [Example 128]	0.7	0.0924	2.46	0.0694
YXEGTXTSDLSILLDKKAQXAFIEYLIEGGPSSGAPPPS (Y-Aib-EGT-αMeF-TSDLSILLDKK((2-[2-(2-Amino-ethoxy)-ethoxy]-acetyl)2-(γ-Glu)-CO-(CH2)18-CO2H)AQ-Aib-AFIEYLIEGGPSSGAPPPS-NH2) [Example 129]	0.543	0.121	1.88	0.106
YXEGTXTSDXSILLDKKAQXAFIEYLIEGGPSSGAPPPS (Y-Aib-EGT-αMeF-TSD-3Pal-SILLDKK((2-[2-(2-Amino-ethoxy)-ethoxy]-acetyl)2-(γ-Glu)-CO-(CH2)18-CO2H)AQ-Aib-AFIEYLIEGGPSSGAPPPS-NH2) [Example 132]	0.255	0.26	2.88	0.0657
YXEGTXTSDXSILLDKKAQXAFIEYLIEGGPSSGAPPPS (Y-Aib-EGT-αMeF-TSD-αMeF-SILLDKK((2-[2-(2-Amino-ethoxy)-ethoxy]-acetyl)2-(γ-Glu)-CO-(CH2)18-CO2H)AQ-Aib-AFIEYLIEGGPSSGAPPPS-NH2) [Example 131]	0.425	0.156	1.03	0.183
YXEGTXTSDESILLDKKAQXAFIEYLIEGGPSSGAPPPS (Y-Aib-EGT-αMeF-TSDESILLDKK((2-[2-(2-Amino-ethoxy)-ethoxy]-acetyl)2-(γ-Glu)-CO-(CH2)18-CO2H)AQ-Aib-AFIEYLIEGGPSSGAPPPS-NH2) [Example 130]	0.182	0.368	0.116	1.55
Y[Aib]EGT[αMeF]TSDYSIXLDKKAQ[Aib]IFIEYLIEGGPSSGAPPPS-NH2 (not fully specified (residues 13, 17); printed as Y-Aib-EGT-αMeF-TSDYSI-αMeF-LDKK((2-[2-(2-Amino-ethoxy)-ethoxy]-acetyl)2-(γ-Glu)-CO-(CH2)18-CO2H)AQ-Aib-IFIEYLIEGGPSSGAPPPS-NH2) [Example 141]	0.414	0.0975	0.538	0.2
Y[Aib]EGTFTSDASILLDKK([AEEA-AEEA-γGlu-C20 diacid])AQ[Aib]AFIEYLIEAGPSSGAPPPS-NH2 (N-terminus assumed; SMILES CC[C@H](C)[C@H](NC(=O)[C@H](CC(C)C)NC(=O)[C@H](Cc1ccc(O)cc1)NC(=O)[C@H](CCC(=O)O)NC(=O)[C@@H](NC(=O)[C@H](Cc1ccccc1)NC(=O)[C@H](C)NC(=O)C(C)(C)NC(=O)[C@H](CCC(N)=O)NC(=O)[C@H](C)NC(=O)[C@H](CCCCNC(=O)COCCOCCNC(=O)COCCOCCNC(=O)CC[C@H](NC(=O)CCCCCCCCCCCCCCCCCCC(=O)O)C(=O)O)NC(=O)[C@H](CCCCN)NC(=O)[C@H](CC(=O)O)NC(=O)[C@H](CC(C)C)NC(=O)[C@H](CC(C)C)NC(=O)[C@@H](NC(=O)[C@H](CO)NC(=O)[C@H](C)NC(=O)[C@H](CC(=O)O)NC(=O)[C@H](CO)NC(=O)[C@@H](NC(=O)[C@H](Cc1ccccc1)NC(=O)[C@@H](NC(=O)CNC(=O)[C@H](CCC(=O)O)NC(=O)C(C)(C)NC(=O)[C@@H](N)Cc1ccc(O)cc1)[C@@H](C)O)[C@@H](C)O)[C@@H](C)CC)[C@@H](C)CC)C(=O)N[C@@H](CCC(=O)O)C(=O)N[C@@H](C)C(=O)NCC(=O)N1CCC[C@H]1C(=O)N[C@@H](CO)C(=O)N[C@@H](CO)C(=O)NCC(=O)N[C@@H](C)C(=O)N1CCC[C@H]1C(=O)N1CCC[C@H]1C(=O)N1CCC[C@H]1C(=O)N[C@@H](CO)C(N)=O) [Example 136]	1.1	0.06	0.0544	3.39
[Desaminotyrosyl][Aib]EGT[αMeF]TSDYSI[Aib]LDEK([AEEA-AEEA-γGlu-C20 diacid])AQ[Aib]AFIEYLIEGGPSSGAPPPS-NH2 (SMILES CC[C@H](C)[C@H](NC(=O)[C@H](CC(C)C)NC(=O)[C@H](Cc1ccc(O)cc1)NC(=O)[C@H](CCC(=O)O)NC(=O)[C@@H](NC(=O)[C@H](Cc1ccccc1)NC(=O)[C@H](C)NC(=O)C(C)(C)NC(=O)[C@H](CCC(N)=O)NC(=O)[C@H](C)NC(=O)[C@H](CCCCNC(=O)COCCOCCNC(=O)COCCOCCNC(=O)CC[C@H](NC(=O)CCCCCCCCCCCCCCCCCCC(=O)O)C(=O)O)NC(=O)[C@H](CCC(=O)O)NC(=O)[C@H](CC(=O)O)NC(=O)[C@H](CC(C)C)NC(=O)C(C)(C)NC(=O)[C@@H](NC(=O)[C@H](CO)NC(=O)[C@H](Cc1ccc(O)cc1)NC(=O)[C@H](CC(=O)O)NC(=O)[C@H](CO)NC(=O)[C@@H](NC(=O)[C@](C)(Cc1ccccc1)NC(=O)[C@@H](NC(=O)CNC(=O)[C@H](CCC(=O)O)NC(=O)C(C)(C)NC(=O)CCc1ccc(O)cc1)[C@@H](C)O)[C@@H](C)O)[C@@H](C)CC)[C@@H](C)CC)C(=O)N[C@@H](CCC(=O)O)C(=O)NCC(=O)NCC(=O)N1CCC[C@H]1C(=O)N[C@@H](CO)C(=O)N[C@@H](CO)C(=O)NCC(=O)N[C@@H](C)C(=O)N1CCC[C@H]1C(=O)N1CCC[C@H]1C(=O)N1CCC[C@H]1C(=O)N[C@@H](CO)C(N)=O) [Example 133]	1.52	0.0436	1.89	0.0879
H[Aib]NGTFTSDYSILLDKK([AEEA-AEEA-γGlu-C20 diacid])AQ[Aib]AFIEYLIEGGPSSGAPPPS-NH2 (N-terminus assumed; SMILES CC[C@H](C)[C@H](NC(=O)[C@H](CC(C)C)NC(=O)[C@H](Cc1ccc(O)cc1)NC(=O)[C@H](CCC(=O)O)NC(=O)[C@@H](NC(=O)[C@H](Cc1ccccc1)NC(=O)[C@H](C)NC(=O)C(C)(C)NC(=O)[C@H](CCC(N)=O)NC(=O)[C@H](C)NC(=O)[C@H](CCCCNC(=O)COCCOCCNC(=O)COCCOCCNC(=O)CC[C@H](NC(=O)CCCCCCCCCCCCCCCCCCC(=O)O)C(=O)O)NC(=O)[C@H](CCCCN)NC(=O)[C@H](CC(=O)O)NC(=O)[C@H](CC(C)C)NC(=O)[C@H](CC(C)C)NC(=O)[C@@H](NC(=O)[C@H](CO)NC(=O)[C@H](Cc1ccc(O)cc1)NC(=O)[C@H](CC(=O)O)NC(=O)[C@H](CO)NC(=O)[C@@H](NC(=O)[C@H](Cc1ccccc1)NC(=O)[C@@H](NC(=O)CNC(=O)[C@H](CC(N)=O)NC(=O)C(C)(C)NC(=O)[C@@H](N)Cc1c[nH]cn1)[C@@H](C)O)[C@@H](C)O)[C@@H](C)CC)[C@@H](C)CC)C(=O)N[C@@H](CCC(=O)O)C(=O)NCC(=O)NCC(=O)N1CCC[C@H]1C(=O)N[C@@H](CO)C(=O)N[C@@H](CO)C(=O)NCC(=O)N[C@@H](C)C(=O)N1CCC[C@H]1C(=O)N1CCC[C@H]1C(=O)N1CCC[C@H]1C(=O)N[C@@H](CO)C(N)=O) [Example 135]	0.509	0.131	0.482	0.373
[Desaminotyrosyl][Aib]EGT[αMePhe(2-F)]TSDYSIXLDEK([AEEA-AEEA-γGlu-C20 diacid])AQ[Aib]EFIEYLIEGGPSSGAPPPS-NH2 (not fully specified (residue 13); printed as DesTyr-Aib-EGT-αMeF(2F)-TSDYSI-αMeF-LDEK((2-[2-(2-Amino-ethoxy)-ethoxy]-acetyl)2-(γ-Glu)-CO-(CH2)18-CO2H)AQ-Aib-EFIEYLIEGGPSSGAPPPS-NH2) [Example 134]	0.942	0.0654	1.43	0.104
Y[Aib]EGT[αMeF]TSDYSIXLDKKAQ[Aib][Aib]FIEYLIEGGPSSGAPPPS-NH2 (not fully specified (residues 13, 17); printed as Y-Aib-EGT-αMeF-TSDYSI-αMeF-LDKK((2-[2-(2-Amino-ethoxy)-ethoxy]-acetyl)2-(γ-Glu)-CO-(CH2)18-CO2H)AQ-Aib-Aib-FIEYLIEGGPSSGAPPPS-NH2) [Example 143]	0.714	0.0745	2.78	0.0515
Y[Aib]EGT[αMeF]TSDYSIXLDKKAQ[Aib]HFIEYLIEGGPSSGAPPPS-NH2 (not fully specified (residues 13, 17); printed as Y-Aib-EGT-αMeF-TSDYSI-αMeF-LDKK((2-[2-(2-Amino-ethoxy)-ethoxy]-acetyl)2-(γ-Glu)-CO-(CH2)18-CO2H)AQ-Aib-HFIEYLIEGGPSSGAPPPS-NH2) [Example 142]	1.22	0.0426	2.84	0.0489
Y[Aib]EGT[αMeF]TSDYSIXLDKKAQ[Aib]DFIEYLIEGGPSSGAPPPS-NH2 (not fully specified (residues 13, 17); printed as Y-Aib-EGT-αMeF-TSDYSI-αMeF-LDKK((2-[2-(2-Amino-ethoxy)-ethoxy]-acetyl)2-(γ-Glu)-CO-(CH2)18-CO2H)AQ-Aib-DFIEYLIEGGPSSGAPPPS-NH2) [Example 140]	1.16	0.0424	3.76	0.0349
Y[Aib]EGT[αMeF]TSDYSIXLDKK([AEEA-AEEA-γGlu-C20 diacid])AQ[Aib]TFIEYLIEGGPSSGAPPPS-NH2 (not fully specified (residue 13); printed as Y-Aib-EGT-αMeF-TSDYSI-αMeF-LDKK((2-[2-(2-Amino-ethoxy)-ethoxy]-acetyl)2-(γ-Glu)-CO-(CH2)18-CO2H)AQ-Aib-TFIEYLIEGGPSSGAPPPS-NH2) [Example 139]	1.13	0.0417	3.61	0.037
